Measured values: patent US20040171074A1, “Structures of substrate binding pockets of SCF complexes” (MOUNT SINAI HOSPITAL, priority 2002, published 2004)
“Also recorded” adds a separate entry of the source.

Experiments:
[1] = system: phospho-Sic1; assay: P-Sic1 pull down: in vitro capture of phospho-Sic1 on immobilized wild type or mutant Cdc4-GST-Skp1, anti-Sic1 immunoblot; assay type: binding, yeast; details: Sic1 phosphorylated with Cln2-Cdc28, captured onto GST-Skp1/Cdc4 resin, anti-Sic1 detection
Description: Mutational analysis of the CPD binding surface. Mutants were tested in vitro by ability to bind phosphorylated Sic1 and then captured onto GST-Skp1/Cdc4 resin and detected with anti-sic1 antibody. Mutants were tested in vivo by ability to degrade GAL1-SIC1 or various phosphorylation mutants. Sites are as follows: 3=Thr 33, Thr 45, Ser 76; 4=Thr 5, Thr 33, Thr 45, Ser 76; 5=Thr 2, Thr 5, Thr 33, Thr 45, Ser 76; 6=Thr 2, Thr 5, Thr 33, Thr 45, Ser 69, Ser 76; 7=Thr 2, Thr 5, Thr 33, Thr 45, Ser 69, Ser 76, Ser 80. GAL1-SIC1 plasmids were transformed into a cdc4Δ strain containing a copy of CDC4 on a TRP1 ARS CEN plasmid. Strains were incubated for 2 days at 30° C.
Bacterially expressed His6-Sic1 was phosphorylated with Cln2-Cdc28 kinase purified from baculovirus infected Sf9 cells as described before (Nature paper). 1 ug of WT or mutant Cdc4-GST-Skp1, immoblized on GSH-Sepharose resin, was incubated with 0.5 ug phospho-Sic1 at 4 C for 1 h and washed 4 times. Captured complexes were resolved on SDS-PAGE and Sic1 visualized by anti-Sic1 Western blotting and ECL. For IEF-2D analysis, several Sic1 phosphorylation reactions were carried out for different time periods to obtain a spectrum of Sic1 that were phosphorylated at different numbers of its nine CDK sites. This pool of phospho-Sic1 (2.5 ug) was incubated with 5 μg of WT or mutant Cdc4-GST-Skp1 as described above. Different phosphorylation states of Sic1 were separated by denaturing isoelectric focusing (IEF)-2D gel electrophoresis and visualized by anti-Sic1 Western blotting and ECL. IEF was performed using pH 3-10NL Immobiline gel strips and IPGphore IEF system (Amersham pharmacia).
(§1) Cdc4 functional assays. CDC4 mutant alleles were assessed for complementation of a cdc4A strain in a plasmid shuffle assay (Nash et al., 2001). Sensitivity to SIC1 dosage was determined by transformation with pMT837 (GAL1-SIC1) or pMT767 (GAL1-SIC1^T33V) and plating on glucose medium or galactose medium. For in vitro capture of phospho-Sic1 by Cdc4, 0.5 μg of bacterially-expressed ^HIS6Sic1 was phosphorylated with immobilized Cln2-Cdc28 kinase from baculovirus-infected Sf9 cells and then incubated with 1 μg of immobilized wild type or mutant Cdc4^263-744-GST-Skp1, at 4° C. for 1 hr, washed 4 times and visualized by anti-Sic1 immunoblot. For isoelectric focusing (IEF)-2D gel analyses, an evenly distributed pool of phospho-Sic1 isoforms was generated by combining different time points in a Sic1 phosphorylation reaction. 2.5 μg of the phospho-Sic1 pool was bound to 5 μg of immobilized wild type or mutant Cdc4^1-744-GST-Skp1. Captured isoforms were separated by denaturing IEF-2D gel electrophoresis using pH3-10NL Immobiline gel strips (Amersham) and visualized by anti-Sic1 immunoblot. Alternatively, the pool of phospho-Sic1 isoforms was incubated in solution with a ubiquitination reaction mix containing ATP, ubiquitin, yeast E1, Cdc34 and either wild type or mutant SCF^Cdc4 complex, composed of a 1:1 ratio of bacterial Cdc4-GST-Skp1 and insect cell-produced Cdc53-Rbx1, at 30° C. for 1 h as previously described (Nash et al., 2001).

[2] = system: cdc4Δ strain; assay: plasmid shuffle assay: complementation of a cdc4Δ strain by CDC4 alleles; assay type: cell-based, yeast; details: viability of cdc4Δ strain on 5-FOA, 2 days at 30° C.
Description: All mutants on a TRP1 ARS CEN plasmid were transformed into a cdc4Δ strain (MT 1259) containing a wildtype copy of CDC4 on a URA3 ARS CEN plasmid. Cells were plated on either Trp^−Ura^− or 5-FOA medium for 2 days at 30° C. Viable cells on 5-FOA were grown in Trp medium and transformed with either wild type GAL1-SIC1, GAL1-SIC T45A, or GAL1-SIC T33V on a LEU2 ARS CEN pasmid. Cells were then plated on Leu- Trp-plates containing either glucose or galactose and incubated for 2 days at 30° C.
as §1

[3] = target: T1, Skp1 (Saccharomyces cerevisiae, UniProt P52286); assay: Skp1 binding in vitro (pull down); parameters: species or system yeast
T1 construct: GST (N); made in house; host or cells: bacteria
T1 sequence (P52286 2-194 limits assumed): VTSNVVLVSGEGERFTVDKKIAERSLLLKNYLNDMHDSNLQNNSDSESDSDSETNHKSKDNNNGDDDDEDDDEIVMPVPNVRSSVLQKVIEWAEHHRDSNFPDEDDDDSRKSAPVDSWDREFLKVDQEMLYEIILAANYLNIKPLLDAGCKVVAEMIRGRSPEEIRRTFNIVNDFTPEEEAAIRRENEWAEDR
From the text: In order to probe the functional importance of amino acid residues on the highly conserved peptide binding surface, a panel of Cdc4 mutants (both single and double mutant) were generated and tested each for its ability to bind phospho Sic1 and Skp1 in vitro using a pull down assay and for its ability to substitute for wt-cdc4 in vivo using a cell viability assay. Of 12 single site mutants tested, only Arg 467. Arg485Ala Arg534Ala, and Trp 426 abolished both cell viability in vivo and phosphoSic1 binding in vitro. Together, these residues compose most of the interaction surface with the pThr, Pro CPD core. […] Presumably in the context of the full SCF complex in vivo this mutant is sufficiently well behaved to bind phospho Sic1.

B1: R485A: mutant cdc4 polypeptide (protein)
chain: MGSFPLAEFPLRDIPVPYSYRVSGGIASSGSVTALVTAAGTHRNSSTAKTVETEDGEEDIDEYQRKRAAGSGESTPERSDFKRVKHDNHKTLHPVNLQNTGAASVDNDGLHNLTDISNDAEKLLMSVDDGSAAPSTLSVNMGVASHNVAAPTTVNAATITGSDVSNNVNSATINNPMEEGALPLSPTASSPGTTTPLAKTTKTINNNNNIADLIESKDSIISPEYLSDEIFSAINNNLPHAYFKNLLFRLVANMDRSELSDLGTLIKDNLKRDLITSLPFEISLKIFNYLQFEDIINSLGVSQNWNKIIRKSTSLWKKLLISENFVSPKGFNSLNLKLSQKYPKLSQQDRLRLSFLENIFILKNWYNPKFVPQRTTLRGHMTSVITCLQFEDNYVITGADDKMIRVYDSINKKFLLQLSGHDGGVWALKYAHGGILVSGSTDRTVRVWDIKKGCCTHVFKGHNSTVRCLDIVEYKNIKYIVTGSADNTLHVWKLPKESSVPDHGEEHDYPLVFHTPEENPYFVGVLRGHMASVRTVSGHGNIVVSGSYDNTLIVWDVAQMKCLYILSGHTDRIYSTIYDHERKRCISASMDTTIRIWDLENIWNNGECSYATNSASPCAKILGAMYTLQGHTALVGLLRLSDKFLVSAAADGSIRGWDANDYSRKFSYHHTNLSAITTFYVSDNILVSGSENQFNIYNLRSGKLVHANILKDADQIWSVNFKGKTLVAAVEKDGQSFLEILDFSKASKINYVSNPVNSSSSSLESISTSLGLTRTTIIP
Q: Which results are given for B1?
A: P-Sic1 pull down [1]: no bind; P-Sic1 pull down ([1]; listed as Arg485Ala): abolished; also recorded: unable to bind; shuffle [2]: dead; shuffle ([2]; listed as Arg485Ala): abolished; also recorded: unable; Skp1 binding [3]: fully competent

B2: R534A: mutant cdc4 polypeptide (protein)
chain: MGSFPLAEFPLRDIPVPYSYRVSGGIASSGSVTALVTAAGTHRNSSTAKTVETEDGEEDIDEYQRKRAAGSGESTPERSDFKRVKHDNHKTLHPVNLQNTGAASVDNDGLHNLTDISNDAEKLLMSVDDGSAAPSTLSVNMGVASHNVAAPTTVNAATITGSDVSNNVNSATINNPMEEGALPLSPTASSPGTTTPLAKTTKTINNNNNIADLIESKDSIISPEYLSDEIFSAINNNLPHAYFKNLLFRLVANMDRSELSDLGTLIKDNLKRDLITSLPFEISLKIFNYLQFEDIINSLGVSQNWNKIIRKSTSLWKKLLISENFVSPKGFNSLNLKLSQKYPKLSQQDRLRLSFLENIFILKNWYNPKFVPQRTTLRGHMTSVITCLQFEDNYVITGADDKMIRVYDSINKKFLLQLSGHDGGVWALKYAHGGILVSGSTDRTVRVWDIKKGCCTHVFKGHNSTVRCLDIVEYKNIKYIVTGSRDNTLHVWKLPKESSVPDHGEEHDYPLVFHTPEENPYFVGVLRGHMASVATVSGHGNIVVSGSYDNTLIVWDVAQMKCLYILSGHTDRIYSTIYDHERKRCISASMDTTIRIWDLENIWNNGECSYATNSASPCAKILGAMYTLQGHTALVGLLRLSDKFLVSAAADGSIRGWDANDYSRKFSYHHTNLSAITTFYVSDNILVSGSENQFNIYNLRSGKLVHANILKDADQIWSVNFKGKTLVAAVEKDGQSFLEILDFSKASKINYVSNPVNSSSSSLESISTSLGLTRTTIIP
Q: B2 was tested. Which P-Sic1 pull down [1] did it give?
A: no bind

Q: And the P-Sic1 pull down ([1]; listed as Arg534Ala)?
A: abolished; also recorded: unable to bind

Q: And the shuffle [2]?
A: dead

Q: And the shuffle ([2]; listed as Arg534Ala)?
A: abolished; also recorded: unable

Q: What about the Skp1 binding [3] of the same molecule?
A: fully competent

B3: W426A: mutant cdc4 polypeptide (protein)
chain: MGSFPLAEFPLRDIPVPYSYRVSGGIASSGSVTALVTAAGTHRNSSTAKTVETEDGEEDIDEYQRKRAAGSGESTPERSDFKRVKHDNHKTLHPVNLQNTGAASVDNDGLHNLTDISNDAEKLLMSVDDGSAAPSTLSVNMGVASHNVAAPTTVNAATITGSDVSNNVNSATINNPMEEGALPLSPTASSPGTTTPLAKTTKTINNNNNIADLIESKDSIISPEYLSDEIFSAINNNLPHAYFKNLLFRLVANMDRSELSDLGTLIKDNLKRDLITSLPFEISLKIFNYLQFEDIINSLGVSQNWNKIIRKSTSLWKKLLISENFVSPKGFNSLNLKLSQKYPKLSQQDRLRLSFLENIFILKNWYNPKFVPQRTTLRGHMTSVITCLQFEDNYVITGADDKMIRVYDSINKKFLLQLSGHDGGVAALKYAHGGILVSGSTDRTVRVWDIKKGCCTHVFKGHNSTVRCLDIVEYKNIKYIVTGSRDNTLHVWKLPKESSVPDHGEEHDYPLVFHTPEENPYFVGVLRGHMASVRTVSGHGNIVVSGSYDNTLIVWDVAQMKCLYILSGHTDRIYSTIYDHERKRCISASMDTTIRIWDLENIWNNGECSYATNSASPCAKILGAMYTLQGHTALVGLLRLSDKFLVSAAADGSIRGWDANDYSRKFSYHHTNLSAITTFYVSDNILVSGSENQFNIYNLRSGKLVHANILKDADQIWSVNFKGKTLVAAVEKDGQSFLEILDFSKASKINYVSNPVNSSSSSLESISTSLGLTRTTIIP
Q: For B3, which P-Sic1 pull down [1] is on record?
A: no bind

Q: What about the P-Sic1 pull down ([1]; listed as Trp 426) of the same molecule?
A: abolished

Q: What about the P-Sic1 pull down ([1]; listed as Trp426Ala) of the same molecule?
A: unable to bind

Q: What about the shuffle [2] of the same molecule?
A: dead

Q: What about the shuffle ([2]; listed as Trp 426) of the same molecule?
A: abolished

Q: What about the shuffle ([2]; listed as Trp426Ala) of the same molecule?
A: unable

Q: And the Skp1 binding [3]?
A: fully competent
